From publication PMC4510971, “Ubinuclein-1 confers histone H3.3-specific-binding by the HIRA histone chaperone complex” (Nature Communications, 2015)
Where a chain is given by its changes, count along the chain named. No end group written: not given here. *: point of attachment. FITC = O=C1OC2(c3ccc(O)cc3Oc3cc(O)ccc32)c2ccc(NC(=S)*)cc21

How the values were obtained:
Conditions in all cases: both partners purified
[1] = target: T1, Asf1/H3.3(FL)/H4(FL) (S. cerevisiae | human | X. laevis, UniProt P32447 1-169; P84243 1-136; P62799 1-103); test: ITC; 0.450 mM UBN1 injected into a cell with 30 μM H3/H4, 22 °C; 20 mM HEPES pH 7.5, 750 mM NaCl, 1 mM TCEP
T1 construct: histone H3.3, human; also called Asf1/H3.3(FL)/H4(FL) complex; not shown: His6, N-terminal, cleaved; copies: + +

[2] = target: T2, H3.3/H4 (human | X. laevis, UniProt P84243 1-136; P62799 1-103); test: ITC + fluorescence polarisation; range of dissociation constants printed 'depending on the assay used' (ITC and FP competition against FITC-UBN1(127–148)); 750 mM NaCl buffer
T2 construct: histone H3.3, human, from a human cDNA library (ATCC 77430); also called H3.3(FL)/H4(FL); FL H3.3/H4; not shown: His6, N-terminal, cleaved; copies: 2 + 2

[3] = target: T2, H3.3/H4; test: fluorescence polarisation; direct: increasing H3/H4 titrated into 10 nM FITC-UBN1(127–148); 20 mM HEPES pH 7.5, 750 mM NaCl, 1 mM TCEP; one site total binding fit
[4] = target: T3, H3.1/H4 (human | X. laevis, UniProt P68431 1-136; P62799 1-103); test: as above
T3 construct: also called H3.1(FL)/H4(FL); FL H3.1/H4; not shown: His6, N-terminal, cleaved; copies: 2 + 2

[5] = target: T2, H3.3/H4; test: pull-down; 2 μM GST-tagged protein as bait on glutathione agarose, 4 μM H3/H4; 20 mM HEPES pH 7.5, 750 mM NaCl, 1 mM TCEP, 4 °C; Coomassie gel (Figs 2, 3, Supplementary Figs 1, 4, 5)
[6] = target: T2, H3.3/H4; test: ITC; 0.450 mM UBN1 injected into a cell with 30 μM H3/H4, 22 °C; 20 mM HEPES pH 7.5, 750 mM NaCl, 1 mM TCEP
[7] = target: T2, H3.3/H4; test: fluorescence polarisation; competition: UBN1 competitor titrated into 10 nM FITC-UBN1(127–148) with 6.5 μM H3.3/H4 or 25 μM H3.1/H4; 20 mM HEPES pH 7.5, 750 mM NaCl, 1 mM TCEP

B1: UBN1(122–148) peptide (peptide)
peptide: IQDLIDMGYGYDESDSFIDNSEAYDEL
notes: also called UBN1-HRD peptide; source: synthetic peptide (Genscript)
- Kd [1]: ~49 µM
- Kd [2]: 40 to 46 µM

B2: FITC-UBN1(127–148) (peptide)
peptide: {FITC}-DMGYGYDESDSFIDNSEAYDEL
notes: also called FITC-labelled UBN1 peptide; source: synthetic peptide (Genscript)
- Kd [3]: 4.3 ± 0.2 µM
- Kd [4]: 17.7 ± 2.3 µM

B3: GST-UBN1(92–175) S135A (domain or fragment)
chain: NDEEKERHKVEALARKFEEKYGGKKRRKDRIQDLIDMGYGYDEADSFIDNSEAYDELVPASLTTKYGGFYINSGTLQFRQASES
notes: one of the 27 alanine point mutants; the text names only the residue; also called S135 alanine point mutant; source: E. coli BL21-Gold(DE3), purified; not shown: GST, N-terminal, kept
- binding result [5]: binds

B4: GST-UBN1(92–175) S137A (domain or fragment)
chain: B3 chain with A44S, S46A
notes: also called S137 alanine point mutant; source: E. coli BL21-Gold(DE3), purified; not shown: GST, N-terminal, kept
- binding result [5]: binds

B5: GST-UBN1(92–175) E134A (domain or fragment)
chain: B3 chain with E43A, A44S
notes: one of the 27 alanine point mutants; the text names only the residue; also called E134 alanine point mutant; source: E. coli BL21-Gold(DE3), purified; not shown: GST, N-terminal, kept
- binding result [5]: binds

B6: UBN1(92–148) (domain or fragment)
chain: NDEEKERHKVEALARKFEEKYGGKKRRKDRIQDLIDMGYGYDESDSFIDNSEAYDEL
- binding result [6]: binds

B7: UBN1(122–175) (domain or fragment)
chain: not shown
- binding result [6]: binds

B8: UBN1(92–175) (domain or fragment)
chain: B3 chain with A44S
notes: also called UBN1 WT; source: E. coli BL21-Gold(DE3), purified (glutathione agarose, TEV cleavage, gel filtration); not shown: GST, N-terminal, cleaved
- Kd [2]: 7 to 17 µM

B9: UBN1(92–175) S135A (domain or fragment)
chain: B3 chain
notes: one of the 27 alanine point mutants; the text names only the residue; also called S135 alanine point mutant; source: E. coli BL21-Gold(DE3), purified (TEV cleavage, gel filtration); not shown: GST, N-terminal, cleaved
- binding result [7]: binds

B10: UBN1(92–175) S137A (domain or fragment)
chain: B3 chain with A44S, S46A
notes: source: E. coli BL21-Gold(DE3), purified (TEV cleavage, gel filtration); not shown: GST, N-terminal, cleaved
- binding result [7]: binds

B11: UBN1(92–175) E134A (domain or fragment)
chain: B3 chain with E43A, A44S
notes: one of the 27 alanine point mutants; the text names only the residue; also called E134 alanine point mutant; source: E. coli BL21-Gold(DE3), purified (TEV cleavage, gel filtration); not shown: GST, N-terminal, cleaved
- binding result [7]: binds
